Molecular target: GST-tagged proline-rich domain (PRD) of Dyn2 (human)
Experiment: pull-down

Sequence of GST-tagged proline-rich domain (PRD) of Dyn2 (human) (P50570 whole entry, the tested form may be a part): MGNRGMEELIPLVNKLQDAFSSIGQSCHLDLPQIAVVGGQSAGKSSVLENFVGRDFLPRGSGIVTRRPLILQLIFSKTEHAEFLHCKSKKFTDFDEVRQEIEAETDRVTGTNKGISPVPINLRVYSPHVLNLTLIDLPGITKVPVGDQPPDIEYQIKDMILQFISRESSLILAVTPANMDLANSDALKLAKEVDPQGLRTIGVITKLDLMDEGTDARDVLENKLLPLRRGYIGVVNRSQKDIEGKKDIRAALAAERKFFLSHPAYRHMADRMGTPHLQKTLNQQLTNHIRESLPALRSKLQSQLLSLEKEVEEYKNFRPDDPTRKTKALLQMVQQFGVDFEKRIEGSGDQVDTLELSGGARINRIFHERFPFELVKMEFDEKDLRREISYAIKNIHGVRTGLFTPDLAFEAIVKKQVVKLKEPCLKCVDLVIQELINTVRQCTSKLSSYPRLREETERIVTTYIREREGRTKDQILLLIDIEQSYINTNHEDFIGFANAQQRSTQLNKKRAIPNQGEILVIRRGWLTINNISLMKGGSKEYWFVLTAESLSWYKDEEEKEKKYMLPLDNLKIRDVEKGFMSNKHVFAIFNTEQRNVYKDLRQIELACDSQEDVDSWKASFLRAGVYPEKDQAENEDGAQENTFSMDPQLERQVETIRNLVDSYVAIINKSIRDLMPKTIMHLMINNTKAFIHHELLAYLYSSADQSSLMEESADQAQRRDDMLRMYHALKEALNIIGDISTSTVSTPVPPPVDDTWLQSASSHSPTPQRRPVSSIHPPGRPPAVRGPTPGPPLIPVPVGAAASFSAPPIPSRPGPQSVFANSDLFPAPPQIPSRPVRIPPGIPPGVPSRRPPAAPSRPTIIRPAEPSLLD

Substance	Kd [nM]
His-tagged human Bin1 isoform 8, CNM-associated mutant K436X (domain or fragment)	267
His-tagged human Bin1 isoform 8, wild type (natural protein)	180

Reference: publication doi:10.1101/2021.10.11.463889
